Results on 1 molecule are retold here after patent US20130178394A1 (UNIVERSITY OF TOKYO, published 2013).

The assay concerns the target T1, biotinylated Avi-His-GB1-E6AP-HECT domain (human, UniProt P06654 228-282; Q05086 495-852, limits assumed, biotin on the Avi tag).
T1 construct: domain: Protein GB1 domain;domain: HECT domain; also called C terminal domain of ubiquitin ligase E6AP
The assay is described as follows: SPR, BIACORE T100, Avi-His-GB1-E6AP-HECT on streptavidin chip, peptide as analyte. As for the experimental part:
The binding constant of MCP11 to E6AP-HECT was analyzed by a surface plasmon resonance using BIACORE T100.
A streptavidin sensor chip (SA chip certified) was used as a sensor chip, an Avi-His-GB1-E6AP-HECT was used as a ligand, and MCP11 was used as an analyte.

Bridge positions count the residues as written; N and C are the ends. Square brackets hold non-standard residues; d marks the D form. NMeF = CN[C@@H](Cc1ccccc1)C(=O)O; NMeS = CN[C@@H](CO)C(=O)O; Sar = CNCC(=O)O

T1 sequence (P06654 228-282, tags or fused parts left off): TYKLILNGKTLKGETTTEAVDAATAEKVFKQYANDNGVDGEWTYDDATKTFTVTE

B1: MCP11, Cyclo(-Ac-DWCDVMeSGRMeFMeGYMeFPC)G-OH (chemically synthesized cyclic N-methyl peptide) (peptide)
peptide: {CH2CO}-[dW]CDV[NMeS]GR[NMeF][Sar]Y[NMeF]PCG-OH
modifications: thioether N-13
notes: The formula stands in the summary (h-0009)
The molecule B1 yielded a Kd of 0.5 nM.
